Tests used:
Experiment in all cases: anti-His co-IP of rCHI3L1 from Kupffer cell lysate, MS; listed under 'proteins bound to CHI3L1'
Q3UJ34_MOUSE = molecular target: T1, Q3UJ34_MOUSE (mouse, UniProt Q3UJ34 1-412)
T1 construct: also called tr|Q3UJ34|Q3UJ34_MOUSE
T1 sequence: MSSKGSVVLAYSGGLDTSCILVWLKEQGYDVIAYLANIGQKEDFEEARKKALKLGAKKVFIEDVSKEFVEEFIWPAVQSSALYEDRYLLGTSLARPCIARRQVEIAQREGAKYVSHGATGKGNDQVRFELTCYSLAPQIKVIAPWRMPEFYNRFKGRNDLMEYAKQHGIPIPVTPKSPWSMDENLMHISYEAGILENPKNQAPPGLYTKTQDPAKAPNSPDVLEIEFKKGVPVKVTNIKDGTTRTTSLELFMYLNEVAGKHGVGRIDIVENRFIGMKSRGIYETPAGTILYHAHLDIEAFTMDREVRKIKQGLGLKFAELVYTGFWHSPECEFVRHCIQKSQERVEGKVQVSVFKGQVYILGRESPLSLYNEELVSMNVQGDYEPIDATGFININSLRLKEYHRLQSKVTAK
Experimental: (§1) CHI3L1 interacts with CD44 on KCs. To further understand how CHI3L1 mediates the function of KCs to recruit platelets, the inventors set out to identify its receptor on KCs. They isolated KCs from WT mice treated with APAP for 3 h and incubated the cells with His-tagged rCHI3L1. The cell lysate was subjected to immunoprecipitation using an anti-His antibody. The “pulled down” fraction was subjected to LC/MS analyses. A partial list of proteins identified, including CHI3L1 itself, is shown in (Extended Data Table 1). Because CD44 is a cell membrane protein, the inventors decided to investigate it is a receptor for CHI3L1. They performed/immunoprecipitation experiments using liver homogenates obtained from WT and CD44^{-/-} mice after APAP treatment. […] Moreover, the inventors incubated rhCHI3L1 with human CD44 and then immunoprecipitated with an anti-CD44 antibody. The data confirmed a direct binding between CHI3L1 and CD44 (FIG. 3C). Consistent with the notion that many cell types express CD44, they detected CD44 express on various hepatic non-parenchymal cells (NPCs) except B cells and DCs (summarized in Extended Data Table 2). However, when they incubated liver NPCs with His-tagged rCHI3L1, the inventors observed that the only CD44-expressing cells that could bind to CHI3L1 were KCs (FIG. 3D).

Q3TJ66_MOUSE = molecular target: T2, Q3TJ66_MOUSE (mouse, UniProt Q3TJ66 2-364)
T2 construct: also called tr|Q3TJ66|Q3TJ66_MOUSE
T2 sequence: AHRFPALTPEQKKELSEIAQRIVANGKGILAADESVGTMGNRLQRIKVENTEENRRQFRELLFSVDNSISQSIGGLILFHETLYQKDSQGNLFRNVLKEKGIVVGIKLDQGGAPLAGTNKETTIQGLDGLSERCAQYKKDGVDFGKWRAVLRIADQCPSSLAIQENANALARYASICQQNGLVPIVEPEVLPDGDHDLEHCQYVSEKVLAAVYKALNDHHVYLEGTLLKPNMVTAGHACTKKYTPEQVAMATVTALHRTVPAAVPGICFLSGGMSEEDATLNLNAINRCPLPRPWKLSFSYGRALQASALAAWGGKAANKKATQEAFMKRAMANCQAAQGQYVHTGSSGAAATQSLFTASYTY
Experimental: as §1

Q546G4_MOUSE = molecular target: T3, Q546G4_MOUSE (mouse, UniProt Q546G4 25-608)
T3 construct: also called sp|Q546G4|Q546G4_MOUSE
Experimental: as §1

Q3UA81_MOUSE = molecular target: T4, Q3UA81_MOUSE (mouse, UniProt Q3UA81 2-462)
T4 construct: also called tr|Q3UA81|Q3UA81_MOUSE
T4 sequence: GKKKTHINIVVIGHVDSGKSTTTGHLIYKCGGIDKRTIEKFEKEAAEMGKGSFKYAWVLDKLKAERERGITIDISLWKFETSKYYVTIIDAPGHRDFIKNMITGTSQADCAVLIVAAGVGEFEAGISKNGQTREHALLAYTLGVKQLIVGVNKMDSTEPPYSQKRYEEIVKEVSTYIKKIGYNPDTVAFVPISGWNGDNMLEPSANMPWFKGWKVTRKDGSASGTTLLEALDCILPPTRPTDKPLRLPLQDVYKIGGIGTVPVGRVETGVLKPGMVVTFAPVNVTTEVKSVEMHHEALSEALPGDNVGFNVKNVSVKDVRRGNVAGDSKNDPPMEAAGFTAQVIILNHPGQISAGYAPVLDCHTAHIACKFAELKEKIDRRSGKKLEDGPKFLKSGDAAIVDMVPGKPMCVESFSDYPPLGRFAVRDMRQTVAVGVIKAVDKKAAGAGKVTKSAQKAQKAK
Experimental: as §1

Q3UQ71_MOUSE = molecular target: T5, Q3UQ71_MOUSE (mouse, UniProt Q3UQ71 1-554)
T5 construct: also called tr|Q3UQ71|Q3UQ71_MOUSE
T5 sequence: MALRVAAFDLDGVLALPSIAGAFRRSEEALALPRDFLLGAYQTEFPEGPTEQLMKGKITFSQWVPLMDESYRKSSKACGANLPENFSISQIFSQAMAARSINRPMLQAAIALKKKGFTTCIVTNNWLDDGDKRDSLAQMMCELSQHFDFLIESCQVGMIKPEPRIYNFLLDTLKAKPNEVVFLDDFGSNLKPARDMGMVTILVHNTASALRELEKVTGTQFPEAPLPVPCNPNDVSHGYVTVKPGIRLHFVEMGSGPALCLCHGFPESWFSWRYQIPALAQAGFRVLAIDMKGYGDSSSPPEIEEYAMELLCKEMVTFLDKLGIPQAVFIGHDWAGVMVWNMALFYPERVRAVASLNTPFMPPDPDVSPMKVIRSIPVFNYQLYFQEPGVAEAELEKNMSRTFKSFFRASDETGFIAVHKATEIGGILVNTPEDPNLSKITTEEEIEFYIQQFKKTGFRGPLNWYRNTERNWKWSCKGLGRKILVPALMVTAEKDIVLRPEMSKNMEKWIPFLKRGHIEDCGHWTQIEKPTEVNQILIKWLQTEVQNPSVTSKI
Experimental: as §1

binding result (Q3UJ34_MOUSE): binds
binding result (Q3TJ66_MOUSE): binds
binding result (Q546G4_MOUSE): binds
binding result (Q3UA81_MOUSE): binds
binding result (Q3UQ71_MOUSE): binds
B1: recombinant mouse CHI3L1 (ligand)
chain: not shown
notes: His-tagged; also called mCHI3L1; mChi3l1

Reference: patent US20240294670A1 (University of Texas, published 2024)
